T1: EsCas13d, nuclease-dead (Eubacterium siraeum, UniProt B0MS50, R295A;H300A;R849A;H854A)
T1 sequence: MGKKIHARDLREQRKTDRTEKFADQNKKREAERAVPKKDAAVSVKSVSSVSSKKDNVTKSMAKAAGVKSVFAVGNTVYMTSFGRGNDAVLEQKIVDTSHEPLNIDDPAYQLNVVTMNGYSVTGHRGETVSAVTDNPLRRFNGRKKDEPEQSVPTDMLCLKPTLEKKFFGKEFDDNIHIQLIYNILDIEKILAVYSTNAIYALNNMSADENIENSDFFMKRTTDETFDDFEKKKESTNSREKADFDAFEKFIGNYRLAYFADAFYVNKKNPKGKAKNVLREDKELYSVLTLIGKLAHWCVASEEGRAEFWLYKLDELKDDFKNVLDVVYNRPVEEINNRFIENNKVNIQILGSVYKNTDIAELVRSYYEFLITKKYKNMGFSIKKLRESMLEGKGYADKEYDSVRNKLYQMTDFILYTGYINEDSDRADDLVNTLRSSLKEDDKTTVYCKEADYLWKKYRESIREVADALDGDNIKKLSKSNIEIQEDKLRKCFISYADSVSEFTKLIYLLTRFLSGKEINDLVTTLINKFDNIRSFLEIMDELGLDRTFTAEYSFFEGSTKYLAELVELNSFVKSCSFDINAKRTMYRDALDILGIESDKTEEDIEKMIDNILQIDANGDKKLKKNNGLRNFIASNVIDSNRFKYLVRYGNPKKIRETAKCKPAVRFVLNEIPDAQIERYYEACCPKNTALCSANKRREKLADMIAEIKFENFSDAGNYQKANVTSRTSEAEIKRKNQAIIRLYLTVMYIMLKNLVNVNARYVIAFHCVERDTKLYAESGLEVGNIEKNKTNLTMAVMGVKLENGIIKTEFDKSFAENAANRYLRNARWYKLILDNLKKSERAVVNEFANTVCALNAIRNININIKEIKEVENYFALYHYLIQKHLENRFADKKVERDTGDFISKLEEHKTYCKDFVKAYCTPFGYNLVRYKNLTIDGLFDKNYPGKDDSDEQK

B1: target 2 MT 5'PFS UCA 3'PFS UUA (mixed)
RNA 1: CACCCGUGCAAAAUUGCAGGGGUCUAAAACCUUCUCCAAAUUGUUUCAUCCU
RNA 2: GGGAAUGGAUCCACAUCUACGAAUUCUCAAGGAUGAAACAAUUUGGAGAAGUUAAGAUCGGAAGAGCACACGU
B2: target 2 MT 5'PFS GGC 3'PFS UCG (mixed)
RNA 1: CACCCGUGCAAAAUUGCAGGGGUCUAAAACCUUCUCCAAAUUGUUUCAUCCU
RNA 2: GGGAAUGGAUCCACAUCUACGAAUUCGGCAGGAUGAAACAAUUUGGAGAAGUCGAGAUCGGAAGAGCACACGU
B3: target 2 MT 5'PFS UUG 3'PFS UGC (mixed)
RNA 1: CACCCGUGCAAAAUUGCAGGGGUCUAAAACCUUCUCCAAAUUGUUUCAUCCU
RNA 2: GGGAAUGGAUCCACAUCUACGAAUUCUUGAGGAUGAAACAAUUUGGAGAAGUGCAGAUCGGAAGAGCACACGU
B4: target 2 MT 5'PFS UAG 3'PFS ACU (mixed)
RNA 1: CACCCGUGCAAAAUUGCAGGGGUCUAAAACCUUCUCCAAAUUGUUUCAUCCU
RNA 2: GGGAAUGGAUCCACAUCUACGAAUUCUAGAGGAUGAAACAAUUUGGAGAAGACUAGAUCGGAAGAGCACACGU
B5: target 2 MT 5'PFS GUG 3'PFS UUA (mixed)
RNA 1: CACCCGUGCAAAAUUGCAGGGGUCUAAAACCUUCUCCAAAUUGUUUCAUCCU
RNA 2: GGGAAUGGAUCCACAUCUACGAAUUCGUGAGGAUGAAACAAUUUGGAGAAGUUAAGAUCGGAAGAGCACACGU
B6: target 2 MT 5'PFS GGC 3'PFS UCA (mixed)
RNA 1: CACCCGUGCAAAAUUGCAGGGGUCUAAAACCUUCUCCAAAUUGUUUCAUCCU
RNA 2: GGGAAUGGAUCCACAUCUACGAAUUCGGCAGGAUGAAACAAUUUGGAGAAGUCAAGAUCGGAAGAGCACACGU
B7: target 2 MT 5'PFS GGU 3'PFS UAC (mixed)
RNA 1: CACCCGUGCAAAAUUGCAGGGGUCUAAAACCUUCUCCAAAUUGUUUCAUCCU
RNA 2: GGGAAUGGAUCCACAUCUACGAAUUCGGUAGGAUGAAACAAUUUGGAGAAGUACAGAUCGGAAGAGCACACGU
B8: target 2 MT 5'PFS UGC 3'PFS AUA (mixed)
RNA 1: CACCCGUGCAAAAUUGCAGGGGUCUAAAACCUUCUCCAAAUUGUUUCAUCCU
RNA 2: GGGAAUGGAUCCACAUCUACGAAUUCUGCAGGAUGAAACAAUUUGGAGAAGAUAAGAUCGGAAGAGCACACGU
B9: target 2 MT 5'PFS UGC 3'PFS AUG (mixed)
RNA 1: CACCCGUGCAAAAUUGCAGGGGUCUAAAACCUUCUCCAAAUUGUUUCAUCCU
RNA 2: GGGAAUGGAUCCACAUCUACGAAUUCUGCAGGAUGAAACAAUUUGGAGAAGAUGAGAUCGGAAGAGCACACGU
B10: target 2 MT 5'PFS UAG 3'PFS ACC (mixed)
RNA 1: CACCCGUGCAAAAUUGCAGGGGUCUAAAACCUUCUCCAAAUUGUUUCAUCCU
RNA 2: GGGAAUGGAUCCACAUCUACGAAUUCUAGAGGAUGAAACAAUUUGGAGAAGACCAGAUCGGAAGAGCACACGU
B11: target 2 MT 5'PFS GUA 3'PFS CGG (mixed)
RNA 1: CACCCGUGCAAAAUUGCAGGGGUCUAAAACCUUCUCCAAAUUGUUUCAUCCU
RNA 2: GGGAAUGGAUCCACAUCUACGAAUUCGUAAGGAUGAAACAAUUUGGAGAAGCGGAGAUCGGAAGAGCACACGU
B12: target 2 MT 5'PFS AUU 3'PFS CAC (mixed)
RNA 1: CACCCGUGCAAAAUUGCAGGGGUCUAAAACCUUCUCCAAAUUGUUUCAUCCU
RNA 2: GGGAAUGGAUCCACAUCUACGAAUUCAUUAGGAUGAAACAAUUUGGAGAAGCACAGAUCGGAAGAGCACACGU
B13: target 2 MT 5'PFS GAA 3'PFS UCC (mixed)
RNA 1: CACCCGUGCAAAAUUGCAGGGGUCUAAAACCUUCUCCAAAUUGUUUCAUCCU
RNA 2: GGGAAUGGAUCCACAUCUACGAAUUCGAAAGGAUGAAACAAUUUGGAGAAGUCCAGAUCGGAAGAGCACACGU
B14: target 2 MT 5'PFS GAG 3'PFS UUC (mixed)
RNA 1: CACCCGUGCAAAAUUGCAGGGGUCUAAAACCUUCUCCAAAUUGUUUCAUCCU
RNA 2: GGGAAUGGAUCCACAUCUACGAAUUCGAGAGGAUGAAACAAUUUGGAGAAGUUCAGAUCGGAAGAGCACACGU
B15: target 2 MT 5'PFS UCA 3'PFS UUC (mixed)
RNA 1: CACCCGUGCAAAAUUGCAGGGGUCUAAAACCUUCUCCAAAUUGUUUCAUCCU
RNA 2: GGGAAUGGAUCCACAUCUACGAAUUCUCAAGGAUGAAACAAUUUGGAGAAGUUCAGAUCGGAAGAGCACACGU
B16: target 2 MT 5'PFS GAG 3'PFS UUU (mixed)
RNA 1: CACCCGUGCAAAAUUGCAGGGGUCUAAAACCUUCUCCAAAUUGUUUCAUCCU
RNA 2: GGGAAUGGAUCCACAUCUACGAAUUCGAGAGGAUGAAACAAUUUGGAGAAGUUUAGAUCGGAAGAGCACACGU
B17: target 2 MT 5'PFS GUG 3'PFS UUU (mixed)
RNA 1: CACCCGUGCAAAAUUGCAGGGGUCUAAAACCUUCUCCAAAUUGUUUCAUCCU
RNA 2: GGGAAUGGAUCCACAUCUACGAAUUCGUGAGGAUGAAACAAUUUGGAGAAGUUUAGAUCGGAAGAGCACACGU
B18: target 2 MT 5'PFS GAA 3'PFS UCU (mixed)
RNA 1: CACCCGUGCAAAAUUGCAGGGGUCUAAAACCUUCUCCAAAUUGUUUCAUCCU
RNA 2: GGGAAUGGAUCCACAUCUACGAAUUCGAAAGGAUGAAACAAUUUGGAGAAGUCUAGAUCGGAAGAGCACACGU
B19: target 2 MT 5'PFS GGC 3'PFS UCU (mixed)
RNA 1: CACCCGUGCAAAAUUGCAGGGGUCUAAAACCUUCUCCAAAUUGUUUCAUCCU
RNA 2: GGGAAUGGAUCCACAUCUACGAAUUCGGCAGGAUGAAACAAUUUGGAGAAGUCUAGAUCGGAAGAGCACACGU
B20: target 2 MT 5'PFS UGC 3'PFS AUC (mixed)
RNA 1: CACCCGUGCAAAAUUGCAGGGGUCUAAAACCUUCUCCAAAUUGUUUCAUCCU
RNA 2: GGGAAUGGAUCCACAUCUACGAAUUCUGCAGGAUGAAACAAUUUGGAGAAGAUCAGAUCGGAAGAGCACACGU
B21: target 2 MT 5'PFS GAA 3'PFS UCG (mixed)
RNA 1: CACCCGUGCAAAAUUGCAGGGGUCUAAAACCUUCUCCAAAUUGUUUCAUCCU
RNA 2: GGGAAUGGAUCCACAUCUACGAAUUCGAAAGGAUGAAACAAUUUGGAGAAGUCGAGAUCGGAAGAGCACACGU
B22: target 2 MT 5'PFS UUG 3'PFS UGU (mixed)
RNA 1: CACCCGUGCAAAAUUGCAGGGGUCUAAAACCUUCUCCAAAUUGUUUCAUCCU
RNA 2: GGGAAUGGAUCCACAUCUACGAAUUCUUGAGGAUGAAACAAUUUGGAGAAGUGUAGAUCGGAAGAGCACACGU
B23: target 2 MT 5'PFS GCG 3'PFS CGG (mixed)
RNA 1: CACCCGUGCAAAAUUGCAGGGGUCUAAAACCUUCUCCAAAUUGUUUCAUCCU
RNA 2: GGGAAUGGAUCCACAUCUACGAAUUCGCGAGGAUGAAACAAUUUGGAGAAGCGGAGAUCGGAAGAGCACACGU
B24: target 2 MT 5'PFS UAG 3'PFS ACA (mixed)
RNA 1: CACCCGUGCAAAAUUGCAGGGGUCUAAAACCUUCUCCAAAUUGUUUCAUCCU
RNA 2: GGGAAUGGAUCCACAUCUACGAAUUCUAGAGGAUGAAACAAUUUGGAGAAGACAAGAUCGGAAGAGCACACGU
B25: target 2 MT 5'PFS UAG 3'PFS ACG (mixed)
RNA 1: CACCCGUGCAAAAUUGCAGGGGUCUAAAACCUUCUCCAAAUUGUUUCAUCCU
RNA 2: GGGAAUGGAUCCACAUCUACGAAUUCUAGAGGAUGAAACAAUUUGGAGAAGACGAGAUCGGAAGAGCACACGU
B26: target 2 MT 5'PFS GGC 3'PFS UCC (mixed)
RNA 1: CACCCGUGCAAAAUUGCAGGGGUCUAAAACCUUCUCCAAAUUGUUUCAUCCU
RNA 2: GGGAAUGGAUCCACAUCUACGAAUUCGGCAGGAUGAAACAAUUUGGAGAAGUCCAGAUCGGAAGAGCACACGU
B27: target 1 insC 3' of 9,insA 3' of 3 (mixed)
RNA 1: CACCCGUGCAAAAAUGCAGGGGUCUAAAACUGAGCGGAUAACCUCUCUAUGG
RNA 2: GGGAAUGGAUCCACAUCUACGAAUUCGUACCAUAGAGAGGUUACUCCGCUACACCGAGAUCGGAAGAGCACACGU
B28: target 1 insA 3' of 21,insC 3' of 8 (mixed)
RNA 1: CACCCGUGCAAAAAUGCAGGGGUCUAAAACUGAGCGGAUAACCUCUCUAUGG
RNA 2: GGGAAUGGAUCCACAUCUACGAAUUCGUACCAAUAGAGAGGUUAUCCCGCUCACCGAGAUCGGAAGAGCACACGU

molecular target: T1, EsCas13d, nuclease-dead; assay: crRNA (strand 1, pre-loaded); Mg2+; 40 mM Tris-HCl pH 7.5, 150 mM NaCl, 6 mM MgCl2, 1 mM DTT, 0.1% Tween-20, 0.2 mg/ml BSA; 25 C; 10 min per concentration, then washed; details: tags: His6-TwinStrep-SUMO cleaved; N-terminal SNAP kept (SNAP-Surface 488); label: 3' end held by stalled T7 RNA polymerase

**Q.** With B1 as the binder, how does the Kd read?
**A.** 7.2 ± 1.1 nM

**Q.** Which Kd does the source give for B2 here?
**A.** 19.8 ± 3.1 nM

**Q.** For B3, which Kd is on record?
**A.** 14.1 ± 2.2 nM

**Q.** How did the Kd turn out when B4 was run?
**A.** 4.5 ± 0.5 nM

**Q.** For B5, which Kd is on record?
**A.** 22.5 ± 3.2 nM

**Q.** B6 was tested. Which Kd did it give?
**A.** 20.6 ± 3.1 nM

**Q.** For B7, which Kd is on record?
**A.** 15.9 ± 1.8 nM

**Q.** How did the Kd turn out when B8 was run?
**A.** 28 ± 9 nM

**Q.** Which Kd does the source give for B9 here?
**A.** 28 ± 6 nM

**Q.** How did the Kd turn out when B10 was run?
**A.** 7.3 ± 2.1 nM

**Q.** For B11, which Kd is on record?
**A.** 6.9 ± 0.4 nM

**Q.** How did the Kd turn out when B12 was run?
**A.** 7.2 ± 0.7 nM

**Q.** Which Kd does the source give for B13 here?
**A.** 32 ± 6 nM

**Q.** Which Kd does the source give for B14 here?
**A.** 15.7 ± 2.5 nM

**Q.** Which Kd does the source give for B15 here?
**A.** 10.3 ± 2.3 nM

**Q.** B16 was tested. Which Kd did it give?
**A.** 18 ± 2.2 nM

**Q.** How did the Kd turn out when B17 was run?
**A.** 61 ± 13 nM

**Q.** For B18, which Kd is on record?
**A.** 30 ± 9 nM

**Q.** Which Kd does the source give for B19 here?
**A.** 18.9 ± 1.7 nM

**Q.** Which Kd does the source give for B20 here?
**A.** 33 ± 7 nM

**Q.** With B21 as the binder, how does the Kd read?
**A.** 13.1 ± 1.6 nM

**Q.** B22 was tested. Which Kd did it give?
**A.** 16.8 ± 1.9 nM

**Q.** For B23, which Kd is on record?
**A.** 11.9 ± 1.2 nM

**Q.** Which Kd does the source give for B24 here?
**A.** 3 ± 0.5 nM

**Q.** B25 was tested. Which Kd did it give?
**A.** 3.12 ± 0.29 nM

**Q.** B26 was tested. Which Kd did it give?
**A.** 36 ± 9 nM

**Q.** B27 was tested. Which Kd did it give?
**A.** 11.1 ± 0.6 nM

**Q.** Which Kd does the source give for B28 here?
**A.** 21.5 ± 1.1 nM

Reference: paper PMC10786891, “Massively parallel profiling of RNA-targeting CRISPR-Cas13d”
